Measured values reported in the DeepSol protein solubility set.

test: soluble on expression in E. coli; label from the status in PepcDB or PDB records

Sequence	soluble on expression in E. coli
MNYIGSKYKLIPFIKENIHAVVGDNLSGTIFCDLFAGTGIVGRAFKKAVNKVISNDLEYYSFVLNQNYIGNIQEIPNQEELINEINSVALKKGFIYSYYSLGGSSRQYFSETNAQKIDAMRLKIEELKLSQNIDNCTYYFLLASLLESADKVANTASVYGAFLKRLKKSAQKELILKGADFDLSLNANEVYQQDASELIGKISGDILYLDPPYNARQYGANYHLLNTIAIYTPFAPKGKTGLPSYQKSSFCSRAKILNAFENLIKTARFKYIFLSYNNEGLMSETEIGNILKKYGTYSLMTKTYMRFKADNKRTHKAAHTKECLHILIK	not soluble
MNKEALVNRLNASAKRQKADIVIKNGKIMDVYNQEWIYEDIAITDGVIVGLGEYEGENIIDAEGQMIVPGFIDGHVHIESSMVTPIEFAKAVLPHGVTTVVTDPHEIANVSGEKGIEFMLEQARHTPLNIHFMLPSSVPAASFERSGAILKAADLKPFYEEEEVLGLAEVMDYVSVQQAEKDMVQKLLDARVAGKRIDGHLAGLSTDLINIYRTAFVLNDHEVTSKEEALDRIRRGMYVMMREGSVAKNTLNVLPAVNEKNRTPVFFCTDDKHVDDLLSEGSVNHQVKMAIQAGLNPFLAYQLGSLNAAECYGLDTKGAIAPGFDADLLFVSDLENVTVTMTMVKGQTVAEDSKAVYQDHASTAAPDQALLDSVKLAAPLNKQDFHMPIDSEQQINVIQIIPNQLETRLVQVPAPVAREFEPDTELDLLKIAVVERHKGLKETGLGVVKGFGFKSGAIATTISHDSHNIIAVGTNDEDIAAAVNKLQEIGGGLTIIKNGEELHSVPLPIAGLLSDQSAEQVNQSLLTLHDKLSLIGFTGGFNPFLTLSFLALPVIPDIKMTTTGLFDVKSFQHISLQ	not soluble
MGSDKIHHHHHHMFLSSMKLGIQSYSLRKLTYENALKVMSELGISYVEAFPRHLPPSSNSVKDIINLHKENGVKVIAHGVNHLKSDKKELRSIFDFANKVEIEVITADPDEDCLNLMSDLVKEYDIKVAIHNHGPYHRWGSYKKIYEFTKNLDYRVGMCLDLAHLFRYGENPIEAVNTLRDRIHDIHVKDVNNKGEDVIVGSGILDVKGVIGKVKELNLDIPLMIEYEPEPENPLPGIVKSLEYVKKLL	not soluble
MGSDKIHHHHHHMKKLRIAQVSPLIESVPPKKYGGTERVVYYLTEGLVERGHEVTLFASGDSATSARLIAPVKESLRLGRKIHSTTIMHMLMLSKVYEEMAGEFDIIHSHLEYLTLPYASCSRTPTVLTMHGRLDLPDYADILKRYSSMAWVSISDSQRAPVPDINWVGTIYHGYPENLFEFNPDPEDYFLYLGRFSEEKRPDEAIRLARACKIHLKLAAKIDTADKAYFKAKVEPLLDSPYIEYVGEVGDSRKGELLRNAKALLNTIDWPEPFGLVMIEALACGTPVIVRRCGSSPEVITHGVTGFICDSQLDFIRAIHNIGTISRIACRREFEQRFTLRHMVDNYETLYRKVIAASSATDSLSSLP	not soluble
MKRSIAPLLVCPACLPKERPLELTATAEADGDITAGHLSCKGCRRRFPIRDGIAVLLPDPDTGPSGGQWKYEEQGTLATYLWSHFADLAGDPEAGDAYASWASALAGNAETSLDAGCAVGRLTFELGQRSGLAVGFDLSLTFIRAARQLARERQIRFSLPREGNLRDEFRLTLPDCWRTDEVEFVVADALAIPFARETFDRTASLNLIDRVSYPLAHLYEMNRVARLSGASFLLSDPFSWSTANAPEEKWLGGTESGPYSGRGMDNVKAILGGKEAIIAPPWTVAREGSVWWKIRSHRNHFELIRSEFLVAERLEHHHHHH	not soluble
MGSDKIHHHHHHVEGLIFQSSEFGTDEIYANMEEYIMQITRDNYSQYAQMVQQMFGKKASSNDPLAQCDYGNFSLRFKPVDINFTKPNWDTIMTKRDKPAMSEEEFDEAIKELARKEFATGKRDDDAYRKLCMQHGETVSPDRKAIYESSMKKTGGKMNAACMFWDSKGNKTLSYNPESRNWKAISTDEEFARARVFTSIYNDELARLKEEYGEKAKGNVSYSKIKVDISAERSKEKNNNEGNTIDLQI	not soluble
MGSDKIHHHHHHMKRQAKIEIQNALVDLMAEYPFQEISTKMICAYCNINRSTFYDYYKDKFDLLDTINSKHKEKFQFLLSALHHNFENIKQDKLKLYKFFIIIAKYIKHNEQFFKDILVTYPMKTLFIDYINLARDYYQQIMNDYSTTVTNKQLYVTYIIGGQAGVFINWLSNGCNESPEEVADILLANTIKLQIQ	not soluble
MAGGLFKLMKDKSVDHSHLHKDHSIHHPTPPRSFFSSSSLAVHPNVETAQSSSEEDLRMPNIKVFSGSSHPDLSTRICERLQLEVSKASLKKFSNKETNVEIGESVRGEDVYIIQSAAGEINDNLMELLIMINACKIASSCRVAAVIPAFPYARQDKKDKSRAPISAKLVANMLSVAGADHIITMDLHASQIQGFFDIPVDNLYAEPAILKYIKESIPNWQTSVIVSPDAGGAKRVTSIADRLNVDFALIHKESKRANEVEKMTLVGSVEGKVAILVDDMADTCGTICMAADKLVEAGADKVYAFCVHGIFSGPALTRLNASKFEAVVVTNTIPQDENMKKCSKIQCIDISMILAEAIRRTHNGESVSYLFSHVPIC	not soluble
MASSGYLYSLVAEDGVWQAFVSKAKLSRERAVALHKALRELTALLAIADRGRLQKGLKGREKFLKVFPRLKAELVEHISQLHALADHAEKLHRGCTISNVVADSFSAASDILSLLGLFLAPVTAEGSLVLSATGLGLGVAATVTDVATSIVEETSRVLDEVEAAPTGTHVLGEAGTSVDRIASKVPQATRDITRDLEALEQHMNALRLVRANPRLEEDARILATTGSISAQRAMQVRASLKGTPLAMSNEARIQRATAAGAALWSDVDSLVKESKHLYEGSASESAEALRKLARELEEKLEGLMEFYKTI	soluble
MGSDKIHHHHHHMLEVPVDRPVEALTIALLRDVKHACAQLGAKFVLAGATARDILMWHLHDIRAPVATRDVDVAVCAVSWESHDALIELLVQTQRFRRHSKQQQKLLFKRSAEDYEGELDIVPFGQIEGPPGEIHWPPDGDIVMTVLGFQEAVDTAQPVSIGEGLVVPVVTLPAFVLLKLIAWKDRRLMKNTDSADLLFVLRNYIDAGNIERTYEQATDLLKAANFDAGLAAAGLLGRDVRGLAYPDTRAALRALLQSADAYETLRLDLQARAAMLLGGFIDDSDALLAAFARELLTEENGSLNGTGPQVGSTGARA	not soluble
MVRESIPKEGENIKIQSYKHDGKIHRVWSETTILKGTDHVVIGGNDHTLVTESDGRTWITREPAIVYFHSEYWFNVICMFREDGIYYYCNLSSPFVCDEEALKYIDYDLDIKVYPNGKYHLLDEDEYEQHMNQMNYPHDIDIILRRNVDILQQWIEQKKGPFAPDFIKVWKERYKKIRQY	soluble
MCMDRIEKLIKKVSKPARLSVERCRLYTESMKQTEGEPMIIRQAKALKHVLENIPIQILDSELIVGTMLPNPPGAIIFPEGVGLRIINELDSLPNRETNRLMVDEEDAKVLREEIAPYWQRKTIEAFAFPLMPDIMQILYTGSVFVLTEIAGISHVAVNYPYLLRRGFRWFLEESERRIRALEESGVYEGEKYSFYQAAKIVSEAVINYGLRYSKLAEELAESEDGERREELLKIAEICRKVPAEKPETFWEAVQFVWLVQSALHQENYEQAISMGRIDQYLYPFFKKDIGEGRINRELAFDILANLWIKTNEIVPAFDSLLEQYFSGQATNQAVTIGGCDIYGNDATNELTYLMLEVTDRLRLRQPNVHVRINKGSPESFLKRLAEAISSGCNNLALFFDDAAVKALKNAEVDDRDALNYTTDGCVEIAPFGNSFTSSDAALINVAKALEYALNEGVDLQFGYEFGAKTEKPKFLEDLLEKLREQVSHIVKLVVRGSNVLSYANAEVKPTPLLSLCVEDCFEKGVDVSRGGARYNFTGIQAVGIADVGDSLVAIEGALNAGYSMDDIVEACRKNFVGYEKLHKLLLQSPKYGNDDDAADKYTKMVLEWYCEEVNRHRNFRGGKFAAGCYPMTTNVGFGFFTSALPSGRKSGEPLNPGVSPSTGMDREGVTAVINSASKLSYENLPNGASLTINLSSDVLGEKGDAVIEALIKSSMELGVMHVQFNILKEDLLRKAQQEPEKYRWLLVRVAGWSAYFVELSRPVQEEVIRRISCRI	soluble
MGYKELLLECQKLLNEGDFEGMIKKLEELSKMEPSSKEEAEESLKLLDFLIEEVKKRQEEIFNKMVNYQKFKNYLR	not soluble
